Reference: patent EP4810516A1 (Shanghai Shengdi Pharmaceutical Co., Ltd., dated 2026)

T1: recombinant monkey (Macaca mulatta) γ9δ2 TCR protein (monkey (Macaca mulatta); called …)
T1 construct: also called Monkey γ9δ2 TCR; Cynomolgus monkey γ9δ2
T1 V domain 1: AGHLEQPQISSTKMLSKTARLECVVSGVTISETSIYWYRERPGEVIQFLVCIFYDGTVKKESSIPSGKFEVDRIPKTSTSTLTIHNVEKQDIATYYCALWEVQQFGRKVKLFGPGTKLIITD
T1 V domain 2: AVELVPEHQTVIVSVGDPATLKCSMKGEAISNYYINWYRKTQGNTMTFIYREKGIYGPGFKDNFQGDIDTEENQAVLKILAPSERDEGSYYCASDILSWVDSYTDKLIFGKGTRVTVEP

T2: recombinant human γ8δ2 TCR protein (human)
T2 chain 1: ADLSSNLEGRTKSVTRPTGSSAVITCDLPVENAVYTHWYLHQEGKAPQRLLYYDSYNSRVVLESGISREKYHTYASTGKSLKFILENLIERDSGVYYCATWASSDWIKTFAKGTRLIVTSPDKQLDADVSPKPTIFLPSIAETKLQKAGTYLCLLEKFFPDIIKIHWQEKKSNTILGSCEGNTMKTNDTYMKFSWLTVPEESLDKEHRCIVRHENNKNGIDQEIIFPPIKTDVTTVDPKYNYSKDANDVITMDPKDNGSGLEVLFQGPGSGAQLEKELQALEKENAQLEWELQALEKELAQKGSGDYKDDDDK
T2 chain 2: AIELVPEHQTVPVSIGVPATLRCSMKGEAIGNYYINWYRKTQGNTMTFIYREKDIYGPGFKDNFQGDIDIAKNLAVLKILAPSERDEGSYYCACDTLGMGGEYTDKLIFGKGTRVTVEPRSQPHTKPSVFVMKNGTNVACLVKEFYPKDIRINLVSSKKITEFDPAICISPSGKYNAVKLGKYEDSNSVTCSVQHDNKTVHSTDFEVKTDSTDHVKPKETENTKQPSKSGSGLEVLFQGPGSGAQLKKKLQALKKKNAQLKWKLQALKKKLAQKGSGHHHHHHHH


Assays:
[1] = target: T3, human GPC3 naturally expressed on tumor cells (human, UniProt P51654 25-580); test: cell-based or functional assay
[2] = target: T3, human GPC3 naturally expressed on tumor …; test: FACS on HepG2 cells (natural human GPC3), anti-human Fc secondary
[3] = target: T4, human GPC3 (Sino Biological, Cat#10088-H08H) (human, UniProt P51654 25-559); test: SPR (Biacore 8K), antibody captured on Protein A chip, antigen as analyte
T4 construct: Bought protein; also called human GPC3 protein

[4] = target: T5, cynomolgus monkey GPC3 (Acrobiosystems, Cat#GP3-C5225) (cynomolgus monkey, UniProt A0A2K5VK50 24-558); test: as above
T5 construct: Bought protein

[5] = target: T1, recombinant monkey (Macaca mulatta) …; test: as above
[6] = target: T3, human GPC3 naturally expressed on tumor …; test: cell-based or functional assay; remark: listed apart in the source
[7] = target: T2, recombinant human γ8δ2 TCR protein; test: ELISA, plate coated with 1 µg/mL recombinant TCR protein, antibody at 30 nM
[8] = target: T2, recombinant human γ8δ2 TCR protein; test: ELISA, plate coated with 1 µg/mL recombinant TCR protein

T3 sequence (P51654 25-580, form in doubt): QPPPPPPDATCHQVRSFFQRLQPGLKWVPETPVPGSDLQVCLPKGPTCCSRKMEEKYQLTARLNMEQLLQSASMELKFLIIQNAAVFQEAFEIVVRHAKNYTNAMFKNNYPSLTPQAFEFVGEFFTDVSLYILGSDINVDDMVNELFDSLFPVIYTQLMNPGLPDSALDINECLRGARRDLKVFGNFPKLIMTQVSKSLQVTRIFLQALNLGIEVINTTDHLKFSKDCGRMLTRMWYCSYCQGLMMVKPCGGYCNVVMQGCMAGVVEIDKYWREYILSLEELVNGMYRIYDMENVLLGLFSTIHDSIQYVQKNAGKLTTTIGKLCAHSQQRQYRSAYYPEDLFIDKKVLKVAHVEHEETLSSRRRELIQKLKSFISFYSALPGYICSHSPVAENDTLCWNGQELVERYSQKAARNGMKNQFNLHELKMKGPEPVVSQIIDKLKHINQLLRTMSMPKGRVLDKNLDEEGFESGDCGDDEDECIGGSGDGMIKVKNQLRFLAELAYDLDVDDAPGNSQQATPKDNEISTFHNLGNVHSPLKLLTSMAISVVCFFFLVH
T4 sequence (P51654 25-559 limits assumed): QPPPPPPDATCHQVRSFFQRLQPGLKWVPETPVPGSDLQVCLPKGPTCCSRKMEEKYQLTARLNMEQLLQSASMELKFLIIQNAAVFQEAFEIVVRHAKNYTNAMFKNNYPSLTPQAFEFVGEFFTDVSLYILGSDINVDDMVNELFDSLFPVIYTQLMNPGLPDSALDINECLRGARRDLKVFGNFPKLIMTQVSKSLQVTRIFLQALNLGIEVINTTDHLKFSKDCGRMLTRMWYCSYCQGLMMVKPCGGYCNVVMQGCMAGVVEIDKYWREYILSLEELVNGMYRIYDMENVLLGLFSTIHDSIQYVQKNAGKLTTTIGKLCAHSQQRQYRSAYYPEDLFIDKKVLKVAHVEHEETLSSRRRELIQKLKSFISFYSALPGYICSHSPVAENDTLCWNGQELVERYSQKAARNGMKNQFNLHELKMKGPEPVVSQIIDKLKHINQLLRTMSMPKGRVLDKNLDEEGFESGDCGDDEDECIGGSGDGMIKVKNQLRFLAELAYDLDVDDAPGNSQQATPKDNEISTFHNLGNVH

Row | EC50 [2] [pM] | Kd [3] [pM] | Kd [4] [pM] | Kd [5] [pM] | absorbance at 450 nm [7] [absorbance at 450 nm] | binding result [8] | Binder | γδT killing of HepG2, EC50 (LDH assay) [1] [pM] | γδT killing of HepG2, Emax (LDH assay) [1] [%] | γδT killing of Huh-7, EC50 (LDH assay) [1] [pM] | γδT killing of Huh-7, Emax (LDH assay) [1] [%] | γδT killing of MKN-45, EC50 (LDH assay) [1] [pM] | γδT killing of MKN-45, Emax (LDH assay) [1] [%] | Killing activity against HepG2, EC50, γδ T cells of donor #SC12004 (LDH assay) [6] [pM] | Killing activity against HepG2, EC50, γδ T cells of donor #SC12392 (LDH assay) [6] [pM] | Killing activity against HepG2, EC50, γδ T cells of donor #XC11053 (LDH assay) [6] [pM] | Killing activity against HepG2, EC50, γδ T cells of donor #XC11061 (LDH assay) [6] [pM]
1 | 5170 | 1740 | 1470 | 42400 | – | – | SDP01696 (bispecific antibody, human IgG1, kappa, also called anti-GPC3/γδTCR bispecific antibody (1+1, with SDP01315H2L2)) heavy 1: not shown light 1: DIQMTQSPSSVSASVGDRVTITCKASQNVGTNVAWYQQKPGKAPKALIYSASYRYSGVPSRFSGSGSGTDFTLTISSLQPEDFATYYCQQYNSFPLTFGQGTKLEIKGGGGSGIPPKIECLPIDISIDEGKVLTVASAFTGEPTPEVTWSTGGRKIHSQEQGRFHIENTDDSTTLTIKDVQKQDGGLYTLTLRNEFGSDSATVNIHIRSI heavy 2: QVQLVQSGAEVKKPGASVKVSCKASGYTFTDYEMHWVRQAPGQGLEWMGALDPKTGDTAYSQKFKGRVTLTADKSTSTAYMELSSLTSEDTAVYYCTRFYSYTYWGQGTLVTVSSASTKGPSVFPLAPSSKSTSGGTAALGCLVKDYFPEPVTVSWNSGALTSGVHTFPAVLQSSGLYSLSSVVTVPSSSLGTQTYICNVNHKPSNTKVDKKVEPKSCDKTHTCPPCPAPEFEGGPSVFLFPPKPKDTLMISRTPEVTCVVVDVSHEDPEVKFNWYVDGVEVHNAKTKPREEQYNSTYRVVSVLTVLHQDWLNGKEYKCKVSNKALPAPIEKTISKAKGQPREPQVCTLPPSREEMTKNQVSLSCAVKGFYPSDIAVEWESNGQPENNYKTTPPVLDSDGSFFLVSKLTVDKSRWQQGNVFSCSVMHEALHNHYTQKSLSLSPGK light 2: DVVMTQSPLSLPVTPGEPASISCRSSQSLVHSNRNTYLHWYLQKPGQSPQLLIYKVSNRFSGVPDRFSGSGSGTDFTLKISRVEAEDVGVYYCSQNTHVPPTFGQGTKLEIKRTVAAPSVFIFPPSDEQLKSGTASVVCLLNNFYPREAKVQWKVDNALQSGNSQESVTEQDSKDSTYSLSSTLTLSKADYEKHKVYACEVTHQGLSSPVTKSFNRGEC | 60 | 70.1 | 210 | 50.9 | 24 | 11 | – | – | – | –
2 | 2470 | 1840 | 1630 | 40600 | – | – | SDP01704 (bispecific antibody, human IgG1, kappa, Bivalent for GPC3; also called anti-GPC3/γδTCR bispecific antibody (2+1, with SDP01315H2L2)) heavy 1: not shown light 1: DIQMTQSPSSVSASVGDRVTITCKASQNVGTNVAWYQQKPGKAPKALIYSASYRYSGVPSRFSGSGSGTDFTLTISSLQPEDFATYYCQQYNSFPLTFGQGTKLEIKGGGGSGIPPKIECLPIDISIDEGKVLTVASAFTGEPTPEVTWSTGGRKIHSQEQGRFHIENTDDSTTLTIKDVQKQDGGLYTLTLRNEFGSDSATVNIHIRSI heavy 2: QVQLVQSGAEVKKPGASVKVSCKASGYTFTDYEMHWVRQAPGQGLEWMGALDPKTGDTAYSQKFKGRVTLTADKSTSTAYMELSSLTSEDTAVYYCTRFYSYTYWGQGTLVTVSSASTKGPSVFPLAPSSKSTSGGTAALGCLVKDYFPEPVTVSWNSGALTSGVHTFPAVLQSSGLYSLSSVVTVPSSSLGTQTYICNVNHKPSNTKVDKKVEPKSCDGGGGSGGGGSQVQLVQSGAEVKKPGASVKVSCKASGYTFTDYEMHWVRQAPGQGLEWMGALDPKTGDTAYSQKFKGRVTLTADKSTSTAYMELSSLTSEDTAVYYCTRFYSYTYWGQGTLVTVSSASTKGPSVFPLAPSSKSTSGGTAALGCLVKDYFPEPVTVSWNSGALTSGVHTFPAVLQSSGLYSLSSVVTVPSSSLGTQTYICNVNHKPSNTKVDKKVEPKSCDKTHTCPPCPAPEFEGGPSVFLFPPKPKDTLMISRTPEVTCVVVDVSHEDPEVKFNWYVDGVEVHNAKTKPREEQYNSTYRVVSVLTVLHQDWLNGKEYKCKVSNKALPAPIEKTISKAKGQPREPQVCTLPPSREEMTKNQVSLSCAVKGFYPSDIAVEWESNGQPENNYKTTPPVLDSDGSFFLVSKLTVDKSRWQQGNVFSCSVMHEALHNHYTQKSLSLSPGK light 2: DVVMTQSPLSLPVTPGEPASISCRSSQSLVHSNRNTYLHWYLQKPGQSPQLLIYKVSNRFSGVPDRFSGSGSGTDFTLKISRVEAEDVGVYYCSQNTHVPPTFGQGTKLEIKRTVAAPSVFIFPPSDEQLKSGTASVVCLLNNFYPREAKVQWKVDNALQSGNSQESVTEQDSKDSTYSLSSTLTLSKADYEKHKVYACEVTHQGLSSPVTKSFNRGEC | 30 | 72 | 110 | 61.7 | 16 | 6.6 | – | – | – | –
3 | 4850 | 1650 | 1470 | 68800 | – | – | SDP01716 (bispecific antibody, human IgG1, kappa, Knob-into-hole IgG1 Fc with L234F/L235E; also called anti-GPC3/γδTCR bispecific antibody (1+1, with SDP01346H4)) heavy 1: not shown heavy 2: QVQLVQSGAEVKKPGASVKVSCKASGYTFTDYEMHWVRQAPGQGLEWMGALDPKTGDTAYSQKFKGRVTLTADKSTSTAYMELSSLTSEDTAVYYCTRFYSYTYWGQGTLVTVSSASTKGPSVFPLAPSSKSTSGGTAALGCLVKDYFPEPVTVSWNSGALTSGVHTFPAVLQSSGLYSLSSVVTVPSSSLGTQTYICNVNHKPSNTKVDKKVEPKSCDKTHTCPPCPAPEFEGGPSVFLFPPKPKDTLMISRTPEVTCVVVDVSHEDPEVKFNWYVDGVEVHNAKTKPREEQYNSTYRVVSVLTVLHQDWLNGKEYKCKVSNKALPAPIEKTISKAKGQPREPQVCTLPPSREEMTKNQVSLSCAVKGFYPSDIAVEWESNGQPENNYKTTPPVLDSDGSFFLVSKLTVD light: DVVMTQSPLSLPVTPGEPASISCRSSQSLVHSNRNTYLHWYLQKPGQSPQLLIYKVSNRFSGVPDRFSGSGSGTDFTLKISRVEAEDVGVYYCSQNTHVPPTFGQGTKLEIKRTVAAPSVFIFPPSDEQLKSGTASVVCLLNNFYPREAKVQWKVDNALQSGNSQESVTEQDSKDSTYSLSSTLTLSKADYEKHKVYACEVTHQGLSSPVTKSFNRGEC | 10 | 70.3 | 60 | 93.8 | 4 | 10.3 | 38 | 33 | 17 | 54
4 | – | – | – | – | 0.108 | – | SDP01346 (VHH, not shown: small tags and cut ends, also called clone No. ac-025; anti-γδTCR single-domain antibody) VHH: QVQLVESGGGLVQAGGSLRLSCTVSGSTFSDFAMGWLRQAPGKEREFVAAISWTGGRTYYADSVKGRFAISRDNGENTVYLQMNSLKSEDTAIYYCAASRDCSGPGCRVHEYDYWGQGTQVTVSS | – | – | – | – | – | – | – | – | – | –
5 | – | – | – | – | 0.192 | no binding (tested: 30 nM) | SDP01315 (antibody, V domains shown, Tested as a chimeric antibody (Protein A purified, detected with anti-human Fc); also called clone No. bph-003; murine-derived anti-γδTCR antibody) VH: EVKLVESGGGLVKPGGSLKLSCAASGFTFSSYAMSWVRQTPEKRLEWVASISSGGSTYYPDSVKGRFTISRDNARNILYLQMSSLRSEDTAMYYCARDGYPPFDYWGQGTTLTVSS VL: DIVMTQSQKFMSTSVGDRVSVTCKASQNVGTNVAWYQQKPGQSPKALIYSASYRYSGVPDRFTGSGSGTDFTLTISNVQSEDLAEYFCQQYNSFPLTFGSGTKLEIK | – | – | – | – | – | – | – | – | – | –
